Assay results: paper PMC12321301
Where two headings read alike, the source gives them in different places.

What was measured:
[1] = biological target: T1, cardiac troponin I (cTnI) (UniProt P19429 2-210); experiment: direct ELASA
[2] = biological target: T1, cardiac troponin I (cTnI); experiment: direct ELASA; remark: listed apart in the source

T1 sequence (P19429 2-210): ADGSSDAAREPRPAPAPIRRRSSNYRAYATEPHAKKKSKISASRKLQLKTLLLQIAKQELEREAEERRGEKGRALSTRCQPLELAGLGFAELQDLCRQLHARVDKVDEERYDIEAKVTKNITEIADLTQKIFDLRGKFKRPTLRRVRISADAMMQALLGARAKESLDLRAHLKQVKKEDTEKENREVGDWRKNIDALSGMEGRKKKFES

Row | Binder | binding result [1] | binding result [2]
1 | CGTGCAGTACGCCAACCTTTCTCATGCGCTGCCCCTCTTA (ssDNA) [Tro4 (5'-biotin)] | binds | 
2 | CGCATGCCAAACGTTGCCTCATAGTTCCCTCCCCGTGTCC (ssDNA) [Tro6 (5'-thiol C6, HRP conjugate)] |  | binds
